This experiment has as its target ΔEGFR (extracellular-deleted mutant human EGFR) (human) (UniProt P00533). Briefly: cell-based or functional assay.

Turning to “T691stop neu (ectodomain-derived, carboxyl-terminal deletion mutant of the rat p185neu oncogene) (from UniProt P06494 23-687) (receptor)”, the decrease of the phosphorylation content of immunoprecipitated p155ΔEGFR monomers (scanning densitometry, PY-20 blot of mAb Δ124 immunoprecipitates) amounted to 33.7% and the ratio of PTyr/ΔEGFRs (scanning densitometry) is 1.04.

The values are drawn from patent EP1745799B1.
